Each block holds one sequence with its values, some of them ahead of it.
How the values were obtained:
HLA-A*26:01 = test: IEDB peptide-MHC binding, purified MHC/competitive/radioactivity; filed as Kd, often an IC50 or EC50 that approximates it; ≥ and ≤ were set here for values at or beyond the usual limits of such assays
HLA-A*23:01 = test: as above
HLA-A*24:02 = test: as above
HLA-A*01:01 [1] = test: as above
HLA-A*29:02 = test: as above
HLA-A*30:02 = test: as above
HLA-B*40:01 = test: as above
HLA-B*44:02 = test: as above
HLA-B*44:03 = test: as above
HLA-A*11:01 = test: IEDB peptide-MHC binding, purified MHC/direct/fluorescence; filed as Kd, often an IC50 or EC50 that approximates it; ≥ and ≤ were set here for values at or beyond the usual limits of such assays
HLA-B*27:05 = test: as above; settings: source organism: SARS-CoV1
HLA-B*15:01 = test: as above; settings: source organism: SARS-CoV1
HLA-A*03:01 = test: as above
HLA-A*01:01 [2] = test: as above
HLA-B*58:01 = test: as above; settings: source organism: Homo sapiens
HLA-B*07:02 = test: as above; settings: source organism: Homo sapiens
[3] = source organism: Mammarenavirus choriomeningitidis
[4] = source organism: Dengue virus 2 Jamaica/1409/1983
[5] = source organism: SARS coronavirus Tor2
[6] = source organism: Dengue virus 3 Martinique/1243/1999
[7] = source organism: Dengue virus 4 Philippines/H241/1956
[8] = source organism: Dengue virus 1 Brazil/97-11/1997
[9] = source organism: Mammarenavirus guanaritoense
[10] = source organism: Lassa virus Josiah
[11] = source organism: Mammarenavirus whitewaterense
[12] = source organism: Mammarenavirus brazilense

Sequence: WCSQTDYQY
Kd (HLA-A*26:01; [3]): ≥ 77900 nM
Kd (HLA-A*23:01; [3]): ≥ 77700 nM
Kd (HLA-A*24:02; [3]): ≥ 77500 nM
Kd (HLA-A*01:01 [1]; [3]): 1160 nM
Kd (HLA-A*29:02; [3]): 258 nM
Kd (HLA-A*30:02; [3]): 342 nM

Sequence: AALLLLVAHY
Kd (HLA-A*30:02; [4]): 10500 nM

Sequence: LTNDNTSRY
Kd (HLA-A*26:01; [5]): 6.48 nM
Kd (HLA-A*23:01; [5]): ≥ 77800 nM
Kd (HLA-A*24:02; [5]): ≥ 77600 nM
Kd (HLA-A*01:01 [1]; [5]): 1.59 nM
Kd (HLA-A*29:02; [5]): 31.6 nM
Kd (HLA-A*30:02; [5]): 8.9 nM

Sequence: NGVVTKNGGY
Kd (HLA-A*30:02; [6]): 15500 nM

Sequence: EEALKGLPI
Kd (HLA-B*40:01; [6]): 3380 nM

Sequence: SLEKAANVQW
Kd (HLA-B*44:02; [7]): 10700 nM

Sequence: DEDNPYKTW
Kd (HLA-B*44:03; [8]): 640 nM
Kd (HLA-B*44:02; [8]): 519 nM

Sequence: EERVILAGPM
Kd (HLA-B*40:01; [4]): 2740 nM
Kd (HLA-B*44:02; [4]): 2280 nM

Sequence: LWLLWPVTL
Kd (HLA-A*26:01; [5]): ≥ 77900 nM
Kd (HLA-A*23:01; [5]): 7.42 nM
Kd (HLA-A*01:01 [1]; [5]): ≥ 78100 nM
Kd (HLA-A*29:02; [5]): 1840 nM
Kd (HLA-A*30:02; [5]): 5030 nM

Sequence: AICSAVPVDW
Kd (HLA-B*44:02; [8]): 893 nM

Sequence: KYILIQAGF
Kd (HLA-A*23:01; [9]): 1.77 nM
Kd (HLA-A*24:02; [9]): 11.9 nM
Kd (HLA-A*29:02; [9]): 3740 nM

Sequence: WCSQTDYQYL
Kd (HLA-A*26:01; [3]): ≥ 69700 nM
Kd (HLA-A*23:01; [3]): 10800 nM
Kd (HLA-A*24:02; [3]): 15000 nM
Kd (HLA-A*01:01 [1]; [3]): 13100 nM
Kd (HLA-A*29:02; [3]): 9280 nM
Kd (HLA-A*30:02; [3]): 10600 nM

Sequence: SDAHKKNLY
Kd (HLA-A*26:01; [10]): ≥ 77900 nM
Kd (HLA-A*23:01; [10]): ≥ 77700 nM
Kd (HLA-A*24:02; [10]): ≥ 77500 nM
Kd (HLA-A*01:01 [1]; [10]): 1120 nM
Kd (HLA-A*29:02; [10]): ≥ 69700 nM
Kd (HLA-A*30:02; [10]): 1640 nM

Sequence: VWKSGILQLF
Kd (HLA-A*23:01; [9]): 16.5 nM
Kd (HLA-A*24:02; [9]): 62.6 nM
Kd (HLA-A*29:02; [9]): 2560 nM

Sequence: IEKASFIEV
Kd (HLA-B*40:01; source organism: Dengue virus 2 Peru/IQT2913/1996): 4040 nM

Sequence: ASDRMGMGV
Kd (HLA-A*01:01 [1]; [6]): 1370 nM

Sequence: LEELGDGLAM
Kd (HLA-B*40:01; [8]): 51.2 nM

Sequence: MTGTLAVFLL
Kd (HLA-A*01:01 [1]; [8]): ≥ 34600 nM

Sequence: TENILTVLL
Kd (HLA-B*44:03; [6]): 351 nM
Kd (HLA-B*40:01; [6]): 12.2 nM
Kd (HLA-B*44:02; [6]): 0.409 nM

Sequence: RVDFCGKGY
Kd (HLA-A*26:01; [5]): 7680 nM
Kd (HLA-A*23:01; [5]): ≥ 77800 nM
Kd (HLA-A*24:02; [5]): ≥ 77600 nM
Kd (HLA-A*29:02; [5]): 9230 nM
Kd (HLA-A*30:02; [5]): 20 nM
Kd (HLA-A*11:01; source organism: SARS-CoV1): 7730 nM
Kd (HLA-B*27:05): 3890 nM
Kd (HLA-B*15:01): 1090 nM
Kd (HLA-A*03:01; source organism: SARS-CoV1): 1890 nM
Kd (HLA-A*01:01 [2]; source organism: SARS-CoV1): 1000 nM

Sequence: YSDPLALKE
Kd (HLA-A*01:01 [1]; [4]): 311 nM

Sequence: FTNMEAQLV
Kd (HLA-A*01:01 [1]; source organism: Dengue virus 3 Sri Lanka/1266/2000): 403 nM

Sequence: KEIGRMLNI
Kd (HLA-B*44:03; [4]): 417 nM
Kd (HLA-B*40:01; [4]): 216 nM
Kd (HLA-B*44:02; [4]): 418 nM

Sequence: KSFEIDKGIY
Kd (HLA-A*26:01; [5]): 5510 nM
Kd (HLA-A*23:01; [5]): ≥ 70000 nM
Kd (HLA-A*24:02; [5]): ≥ 70300 nM
Kd (HLA-A*01:01 [1]; [5]): 780 nM
Kd (HLA-A*29:02; [5]): 984 nM
Kd (HLA-A*30:02; [5]): 4.75 nM

Sequence: QETWNRQDL
Kd (HLA-B*40:01; [8]): 72.8 nM

Sequence: MEKYQLAVTI
Kd (HLA-B*44:02; [4]): 331 nM

Sequence: AELEEGVYR
Kd (HLA-B*44:03; [6]): 9270 nM

Sequence: VKMPTHRHI
Kd (HLA-A*26:01; [3]): ≥ 77900 nM
Kd (HLA-A*23:01; [3]): ≥ 77700 nM
Kd (HLA-A*24:02; [3]): ≥ 77500 nM
Kd (HLA-A*01:01 [1]; [3]): ≥ 78100 nM
Kd (HLA-A*29:02; [3]): ≥ 78900 nM
Kd (HLA-A*30:02; [3]): ≥ 76900 nM

Sequence: FYFTNDVSFL
Kd (HLA-A*26:01; [5]): 9340 nM
Kd (HLA-A*23:01; [5]): 59.2 nM
Kd (HLA-A*24:02; [5]): 47.5 nM
Kd (HLA-A*01:01 [1]; [5]): 2000 nM
Kd (HLA-A*29:02; [5]): 384 nM
Kd (HLA-A*30:02; [5]): ≥ 34200 nM

Sequence: LLEKCDLQNY
Kd (HLA-A*26:01; [5]): ≥ 82800 nM
Kd (HLA-A*23:01; [5]): ≥ 70000 nM
Kd (HLA-A*24:02; [5]): ≥ 70300 nM
Kd (HLA-A*01:01 [1]; [5]): 70.7 nM
Kd (HLA-A*29:02; [5]): 3260 nM
Kd (HLA-A*30:02; [5]): 7030 nM

Sequence: YQPESQKFI
Kd (HLA-A*23:01; [11]): 7210 nM
Kd (HLA-A*24:02; [11]): 8480 nM
Kd (HLA-A*29:02; [11]): 3390 nM

Sequence: VEMGEAAGI
Kd (HLA-B*44:03; [4]): 206 nM
Kd (HLA-B*40:01; [4]): 268 nM
Kd (HLA-B*44:02; [4]): 26.5 nM

Sequence: NRKGKVIGLY
Kd (HLA-A*30:02; [7]): 109 nM

Sequence: MFKTKGRYNL
Kd (HLA-A*23:01; [12]): 2070 nM
Kd (HLA-A*24:02; [12]): 7170 nM
Kd (HLA-A*29:02; [12]): 68.9 nM

Kd (HLA-A*11:01; source organism: Homo sapiens): 1660 nM
Kd (HLA-B*58:01): 326 nM
Kd (HLA-B*07:02): ≥ 33100 nM
Kd (HLA-A*03:01; source organism: Homo sapiens): 852 nM
Kd (HLA-A*01:01 [2]; source organism: Homo sapiens): 6420 nM
Sequence: ILGPPGSVY

Reference: the Immune Epitope Database (IEDB)
